In patent publication US20180339057A1 (Novo Nordisk, published 2018):

T1: human MIC-1 receptor (hGFRAL, GDNF family receptor alpha like), full length (human, UniProt Q6UXV0 19-394)
T1 sequence (looked up): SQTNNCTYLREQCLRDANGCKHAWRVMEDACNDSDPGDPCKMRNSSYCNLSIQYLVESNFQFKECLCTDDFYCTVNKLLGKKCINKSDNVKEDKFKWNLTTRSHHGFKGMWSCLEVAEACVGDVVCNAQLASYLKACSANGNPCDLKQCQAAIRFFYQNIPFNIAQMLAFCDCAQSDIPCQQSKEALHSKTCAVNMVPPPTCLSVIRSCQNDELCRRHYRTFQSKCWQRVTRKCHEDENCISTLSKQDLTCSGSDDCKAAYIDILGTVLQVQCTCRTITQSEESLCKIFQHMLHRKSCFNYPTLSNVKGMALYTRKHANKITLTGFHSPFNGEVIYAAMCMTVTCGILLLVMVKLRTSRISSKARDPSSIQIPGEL


Assays:
[1] = target: T1, human MIC-1 receptor (hGFRAL, GDNF …); assay: cell-based or functional assay
[2] = target: T1, human MIC-1 receptor (hGFRAL, GDNF …); assay: SPA: displacement of 50 pM human [125I]-MIC-1 from BHK21-hGFRAL-IRES-hRET cell membranes
Experimental: Binding potencies of MIC-1 compounds were calculated by IC50 of displacement curves.
BHK21-hGFRAL-IRES-hRET cells were cultured at +37° C. in a humidified atmosphere with 5% CO₂ in complete medium consisting of DMEM with high glucose and sodium pyrovate, heat inactivated 10% Fetal Bovine Serum, 1% Penicillin-Streptomycin, 1 mg/ml G418-Geneticin and 400 ug/ml Hygromycin. Cells were washed twice in ice cold Dulbecco's phosphate-buffered saline (DPBS) and detached mechanically by scraping, transferred in ice cold DPBS into conical centrifuge tubes and centrifuged for 5 min at 1500 rpm at +20° C. Cell pellet was resuspended in a total amount of 10 ml ice cold homogenization buffer A (50 mM Tris, 2.5 mM EDTA, adjust pH7.4 with one EDTA-free protease inhibitor cocktail tablet/50 ml) and homogenized for 20 seconds. The homogenate was centrifuged at 16000 rpm in 20 minutes at +4° C. The supernatant was discarded and the pellet was reconstituted in 10 ml homogenization buffer B (50 mM Tris, 320 mM Sucrose, adjust pH 7.4 with one EDTA-free protease inhibitor cocktail tablet/50 ml) and homogenized for 20 seconds and centrifuged at 16000 rpm in 20 minutes at +4° C. This procedure was repeated one more time. The supernatant was discarded and the pellet was reconstituted in 3 ml homogenization buffer B and homogenized for 10 seconds at low speed. Protein concentration was determined by standard Bradford method and 1.5 mg protein/tube was aliquoted to cryotubes and stored at −80° C. Binding assays were performed in white 96-well plates in a total volume of 200 μl per well. Wheat germ agglutinin SPA beads were reconstituted in assay buffer (50 mM Tris/HCl, 4.5 mM MgCl₂, 0.02% Tween 20 and 0.25% Ovalbumin pH 7.4) and mixed with membrane preparation to give a final concentration of 0.5 mg SPA beads and 10 μg total protein per well. […] The plate was sealed and incubated at +22° C. for 2 hours in a plate shaker set at 350 rpm and thereafter centrifuged at 1500 rpm for 10 minutes prior to reading of SPA bead light emission.

Binder | Luciferase + 0.1% HSA NNDK EC50 (pM) [1] [pM] | Luciferase NNDK EC50 (pM) [1] [pM] | IC50 [2] [nM]
SEPATSGSETPGTSESATPESGPGTSTEPSEG-MIC-1-des-N3 (M57L, M86L) (ligand, homodimer; no protractor) SEPATSGSETPGTSESATPESGPGTSTEPSEGARGDHCPLGPGRCCRLHTVRASLEDLGWADWVLSPREVQVTMCIGACPSQFRAANLHAQIKTSLHRLKPDTVPAPCCVPASYNPLVLIQKTDTGVSLQTYDDLLAKDCHCI | 64 | 85 | 119
Compound 02 (ligand, Cys-27 (residue 6 of SEQ ID NO: 291): S{Beta}-[2-[2-[[2-[2-[2-[[2-[2-[2-[[(4S)-4-carboxy-4-(17-carboxyheptadecanoylamino)butanoyl]amino]ethoxy]ethoxy]acetyl]amino]ethoxy]ethoxy]acetyl]amino]ethylamino]-2-oxoethyl]Cys, homodimer, two protractors per dimer) SEPATCGSETPGTSESATPESGPGTSTEPSEGARGDHCPLGPGRCCRLHTVRASLEDLGWADWVLSPREVQVTMCIGACPSQFRAANMHAQIKTSLHRLKPDTVPAPCCVPASYNPMVLIQKTDTGVSLQTYDDLLAKDCHCI | 107 | 123 | 4.9
Compound 11 (ligand, Cys-29 (residue 4 of SEQ ID NO: 290): S{Beta}-[2-[2-[[2-[2-[2-[[2-[2-[2-[[(4S)-4-carboxy-4-(17-carboxyheptadecanoylamino)butanoyl]amino]ethoxy]ethoxy]acetyl]amino]ethoxy]ethoxy]acetyl]amino]ethylamino]-2-oxoethyl]Cys (protractor of Example 10.4), homodimer, two protractors per dimer) SEPCTSGSETPGTSESATPESGPGTSTEPSEGARGDHCPLGPGRCCRLHTVRASLEDLGWADWVLSPREVQVTMCIGACPSQFRAANLHAQIKTSLHRLKPDTVPAPCCVPASYNPLVLIQKTDTGVSLQTYDDLLAKDCHCI | 62 | 55 | 29
Compound 05 (ligand, Cys-26 (residue 7 of SEQ ID NO: 289): S{Beta}-[2-[2-[[2-[2-[2-[[2-[2-[2-[[(4S)-4-carboxy-4-(17-carboxyheptadecanoylamino)butanoyl]amino]ethoxy]ethoxy]acetyl]amino]ethoxy]ethoxy]acetyl]amino]ethylamino]-2-oxoethyl]Cys (protractor of Example 10.4), homodimer, two protractors per dimer) SEPATSCSETPGTSESATPESGPGTSTEPSEGARGDHCPLGPGRCCRLHTVRASLEDLGWADWVLSPREVQVTMCIGACPSQFRAANLHAQIKTSLHRLKPDTVPAPCCVPASYNPLVLIQKTDTGVSLQTYDDLLAKDCHCI | 63 | 57 | 23
Compound 21 (ligand, Cys-29 (residue 4 of SEQ ID NO: 288): S{Beta}-[2-[2-[[2-[2-[2-[[2-[2-[2-[[(4S)-4-carboxy-4-[16-(1H-tetrazol-5-yl)hexadecanoylamino]butanoyl]amino]ethoxy]ethoxy]acetyl]amino]ethoxy]ethoxy]acetyl]amino]ethylamino]-2-oxoethyl]Cys (protractor of Example 10.10), homodimer, two protractors per dimer) SEPCTSGSETPGTSESATPESGPGTSTEPSEGARGDHCPLGPGRCCRLHTVRASLEDLGWADWVLSPREVQVTMCIGACPSQFRAANMHAQIKTSLHRLKPDTVPAPCCVPASYNPMVLIQKTDTGVSLQTYDDLLAKDCHCI | 56 | 53 | 1
Compound 20 (ligand, Cys-29 (residue 4 of SEQ ID NO: 288): S{Beta}-[2-[[(1S)-1-carboxy-5-[[2-[2-[2-[[2-[2-[2-[[(4S)-4-carboxy-4-[12-(4-carboxyphenoxy)dodecanoylamino]butanoyl]amino]ethoxy]ethoxy]acetyl]amino]ethoxy]ethoxy]acetyl]amino]pentyl]amino]-2-oxoethyl]Cys (protractor of Example 10.9), homodimer, two protractors per dimer) SEPCTSGSETPGTSESATPESGPGTSTEPSEGARGDHCPLGPGRCCRLHTVRASLEDLGWADWVLSPREVQVTMCIGACPSQFRAANMHAQIKTSLHRLKPDTVPAPCCVPASYNPMVLIQKTDTGVSLQTYDDLLAKDCHCI | 77 | 49 | 6.5

Further lines, results first:

Luciferase + 0.1% HSA NNDK EC50 (pM) [1] [pM] | Luciferase NNDK EC50 (pM) [1] [pM] | IC50 [2] [nM] | Binder
58 | 90 | 17 | Compound 04 (ligand, Cys-27 (residue 6 of SEQ ID NO: 291): S{Beta}-[2-[2-[[2-[2-[2-[[2-[2-[2-[[(4S)-4-carboxy-4-(13-carboxytridecanoylamino)butanoyl]amino]ethoxy]ethoxy]acetyl]amino]ethoxy]ethoxy]acetyl]amino]ethylamino]-2-oxoethyl]Cys (protractor of Example 10.3), homodimer, two protractors per dimer) SEPATCGSETPGTSESATPESGPGTSTEPSEGARGDHCPLGPGRCCRLHTVRASLEDLGWADWVLSPREVQVTMCIGACPSQFRAANMHAQIKTSLHRLKPDTVPAPCCVPASYNPMVLIQKTDTGVSLQTYDDLLAKDCHCI
651 | 139 | 56 | Compound 08 (ligand, Cys-3 (residue 30 of SEQ ID NO: 293): S{Beta}-[2-[2-[[2-[2-[2-[[2-[2-[2-[[(4S)-4-carboxy-4-(17-carboxyheptadecanoylamino)butanoyl]amino]ethoxy]ethoxy]acetyl]amino]ethoxy]ethoxy]acetyl]amino]ethylamino]-2-oxoethyl]Cys (protractor of Example 10.4), homodimer, two protractors per dimer) SEPATSGSETPGTSESATPESGPGTSTEPCEGARGDHCPLGPGRCCRLHTVRASLEDLGWADWVLSPREVQVTMCIGACPSQFRAANLHAQIKTSLHRLKPDTVPAPCCVPASYNPLVLIQKTDTGVSLQTYDDLLAKDCHCI
51 | 63 | 11 | Compound 16 (ligand, alpha-amino group of the N-terminal Ser-32 (residue 1 of SEQ ID NO: 312): N-[4-[[[2-[2-[2-[[2-[2-[2-[[(4S)-4-carboxy-4-(17-carboxyheptadecanoylamino)butanoyl]amino]ethoxy]ethoxy]acetyl]amino]ethoxy]ethoxy]acetyl]amino]methyl]phenyl]methyl (protractor of Example 10.1), homodimer, two protractors per dimer; also called dialkylated) SEPATSGSETPGTSESATPESGPGTSTEPSEGARGDHCPLGPGRCCRLHTVRASLEDLGWADWVLSPREVQVTMCIGACPSQFRAANLHAQIKTSLHRLRPDTVPAPCCVPASYNPLVLIQRTDTGVSLQTYDDLLARDCHCI
106 | 96 | 11 | Compound 03 (ligand, Cys-27 (residue 6 of SEQ ID NO: 291): S{Beta}-[2-[2-[[2-[2-[2-[[2-[2-[2-[[(4S)-4-carboxy-4-(15-carboxypentadecanoylamino)butanoyl]amino]ethoxy]ethoxy]acetyl]amino]ethoxy]ethoxy]acetyl]amino]ethylamino]-2-oxoethyl]Cys (protractor of Example 10.2), homodimer, two protractors per dimer) SEPATCGSETPGTSESATPESGPGTSTEPSEGARGDHCPLGPGRCCRLHTVRASLEDLGWADWVLSPREVQVTMCIGACPSQFRAANMHAQIKTSLHRLKPDTVPAPCCVPASYNPMVLIQKTDTGVSLQTYDDLLAKDCHCI
